Results on 26 molecules are retold here after publication PMC3470569, “Probing Subunit-Subunit Interactions in the Yeast Vacuolar ATPase by Peptide Arrays” (PLoS ONE, 2012).

Ends that are not written are not given here. cellulose = not defined here

Common to all, as to experiment: peptide or protein array; 20-mer peptides linked at their C-terminal end to cellulose and spotted in duplicate on glass slides; blocked in 2% nonfat milk; purified probe at 4 µM in TBS for 1 hour at 4°C; bound probe detected through MBP or FLAG with HRP-coupled antibody (chemiluminescence); hits by ANOVA (p 0.05, Bonferroni) and HCL in MeV, score of at least 1 in 75% of the spots
Settings in all cases: both partners purified

In experiment [1] the target is T1, subunit E (Vma4p), N-terminal MBP fusion (S. cerevisiae, UniProt P22203 1-233).
T1 construct: V-ATPase subunit E (Vma4p), S. cerevisiae, 233 amino acids; also called MBP-E; source: E. coli, purified (amylose column); not shown: MBP, N-terminal, kept
T1 sequence (looked up): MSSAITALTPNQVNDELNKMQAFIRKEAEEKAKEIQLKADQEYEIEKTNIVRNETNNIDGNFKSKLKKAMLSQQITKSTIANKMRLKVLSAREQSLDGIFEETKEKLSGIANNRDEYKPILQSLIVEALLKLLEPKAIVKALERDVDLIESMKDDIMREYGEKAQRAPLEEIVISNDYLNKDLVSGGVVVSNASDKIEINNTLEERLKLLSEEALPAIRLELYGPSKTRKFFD

The target in experiment [2] is T2, full-length subunit H (Vma13p), N-terminal MBP fusion (S. cerevisiae, UniProt P41807 1-478).
T2 construct: V-ATPase subunit H (Vma13p), S. cerevisiae, 478 amino acids; Construct provided by the laboratory of Dr. Patricia Kane; also called MBP-H; source: E. coli, purified (amylose column; ultrafiltration or size exclusion chromatography); not shown: MBP, N-terminal, kept
T2 sequence (looked up): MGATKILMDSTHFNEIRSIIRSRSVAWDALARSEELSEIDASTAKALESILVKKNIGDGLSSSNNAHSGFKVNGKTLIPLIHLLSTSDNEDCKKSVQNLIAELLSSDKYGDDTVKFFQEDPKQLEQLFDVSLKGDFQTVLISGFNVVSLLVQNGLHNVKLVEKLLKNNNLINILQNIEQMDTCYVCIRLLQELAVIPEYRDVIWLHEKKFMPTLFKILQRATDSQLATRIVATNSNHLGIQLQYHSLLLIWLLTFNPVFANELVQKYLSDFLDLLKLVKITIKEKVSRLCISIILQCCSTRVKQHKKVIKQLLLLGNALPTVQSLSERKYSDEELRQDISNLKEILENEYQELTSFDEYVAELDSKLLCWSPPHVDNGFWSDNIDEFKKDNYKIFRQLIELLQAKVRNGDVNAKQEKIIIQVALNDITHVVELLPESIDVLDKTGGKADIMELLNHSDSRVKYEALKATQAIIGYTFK

Experiment [3] concerns the target T3, subunit G (Vma10p) with FLAG tag (S. cerevisiae, UniProt P48836 1-114).
T3 construct: V-ATPase subunit G (Vma10p), S. cerevisiae, 114 amino acids; also called G-FLAG; FLAG-G; source: E. coli, from the bicistronic MBP-FLAG-G / E construct, purified (amylose, PreScission cleavage of MBP, DEAE, amylose); not shown: MBP, N-terminal, cleaved
T3 sequence (looked up): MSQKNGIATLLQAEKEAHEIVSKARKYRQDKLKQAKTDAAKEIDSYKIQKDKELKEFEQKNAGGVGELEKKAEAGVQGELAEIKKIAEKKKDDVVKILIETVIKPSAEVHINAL

Experiment [4] concerns the target T4, C-terminal domain of subunit H (HCT), N-terminal MBP fusion (S. cerevisiae, UniProt P41807 353-478).
T4 construct: V-ATPase subunit H (Vma13p), S. cerevisiae, C-terminal globular domain 353-478 (126 amino acids); Construct provided by the laboratory of Dr. Patricia Kane; also called MBP-HCT; source: E. coli, purified (amylose column; ultrafiltration or size exclusion chromatography); not shown: MBP, N-terminal, kept
T4 sequence (looked up): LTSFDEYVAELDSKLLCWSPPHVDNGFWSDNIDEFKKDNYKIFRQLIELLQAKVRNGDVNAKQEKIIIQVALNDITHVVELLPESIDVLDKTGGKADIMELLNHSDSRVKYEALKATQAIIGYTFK

The target in experiment [5] is T5, EG heterodimer (untagged subunit E with FLAG-tagged subunit G) (S. cerevisiae, UniProt P22203 1-233; P48836 1-114).
T5 construct: V-ATPase subunit E (Vma4p), S. cerevisiae, tagless; V-ATPase subunit G (Vma10p), S. cerevisiae; also called EG-FLAG; source: E. coli, co-expressed from one bicistronic plasmid, purified (amylose, PreScission cleavage of MBP, DEAE, amylose); not shown: MBP, N-terminal, cleaved; FLAG, N-terminal, kept
T5 sequence (looked up) 1: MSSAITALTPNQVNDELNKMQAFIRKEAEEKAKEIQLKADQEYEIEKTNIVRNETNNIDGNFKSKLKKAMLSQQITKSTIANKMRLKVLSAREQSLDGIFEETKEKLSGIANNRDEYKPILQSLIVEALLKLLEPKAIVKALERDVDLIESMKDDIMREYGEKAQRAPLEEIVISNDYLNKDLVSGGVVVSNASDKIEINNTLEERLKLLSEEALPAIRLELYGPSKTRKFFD
T5 sequence (looked up) 2: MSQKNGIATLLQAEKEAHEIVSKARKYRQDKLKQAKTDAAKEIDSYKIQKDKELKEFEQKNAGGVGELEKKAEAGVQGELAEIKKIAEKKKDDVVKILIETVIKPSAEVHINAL

B1: F(41-60) (peptide, UniProt P39111 41-60, looked up)
peptide: QEGKTTKEEITDKFNHFTEE-cellulose
modifications: reading uncertain
notes: V-ATPase subunit F, S. cerevisiae, residues 41-60; source: synthetic peptide, spotted on glass slide array (Intavis)
For B1, the binding result in experiment [1] and in experiment [2] was “binds” each time.

B2: a(151-170) (peptide, UniProt P32563 151-170, looked up)
peptide: FFLKGDNTDSTSYMDEDMID-cellulose
modifications: reading uncertain
notes: source: synthetic peptide, spotted on glass slide array (Intavis)
As to B2, the binding result in experiment [1] is on record as “binds”.

B3: D(161-180) (peptide, UniProt P32610 161-180, looked up)
peptide: EVIKVTNRRVNAIEHVIIPR-cellulose
modifications: reading uncertain
notes: as for B2
With B3, the binding result in experiment [3] is on record as “binds”.

B4: H(331) (peptide, UniProt P41807 331-350, looked up)
peptide: SDEELRQDISNLKEILENEY-cellulose
modifications: reading uncertain
notes: V-ATPase subunit H (Vma13p), S. cerevisiae; source: synthetic peptide, spotted on glass slide array (Intavis)
Turning to B4, the binding result in experiment [1] was “binds”.

B5: B(349-368) (peptide, UniProt P16140 349-368, looked up)
peptide: LTGYITEGQIFVDRQLHNKG-cellulose
modifications: reading uncertain
notes: as for B2
Turning to B5, the binding result in experiment [2] and in experiment [3] was “binds” each time.

B6: H(221-240) (peptide, UniProt P41807 221-240, looked up)
peptide: ATDSQLATRIVATNSNHLGI-cellulose
modifications: reading uncertain
notes: as for B2
As to B6, the binding result in experiment [4] and in experiment [3] was “binds” each time.

B7: a(291-310) (peptide, UniProt P32563 291-310, looked up)
peptide: TSTTLESELYAIAKELDSWF-cellulose
modifications: reading uncertain
notes: as for B2
As for B7, the binding result in experiment [5] is recorded as “binds”.

B8: a(41-60) (peptide, UniProt P32563 41-60, looked up)
peptide: FRDLNSKVRAFQRTFVNEIR-cellulose
modifications: reading uncertain
notes: V-ATPase Vo subunit a (gene Vph1), S. cerevisiae, residues 41-60; source: synthetic peptide, spotted on glass slide array (Intavis)
B8: the binding result in experiment [4] and in experiment [2] was “binds” each time.

B9: C(321-340) (peptide, UniProt P31412 321-340, looked up)
peptide: LPPHFNIKIIAVPPKNLSKC-cellulose
modifications: reading uncertain
notes: as for B2
On to B9, for which the binding result in experiment [4] and in experiment [2] was “binds” throughout.

B10: D(181-200) (peptide, UniProt P32610 181-200, looked up)
peptide: TENTIAYINSELDELDREEF-cellulose
modifications: reading uncertain
notes: as for B2
B10: the binding result in experiment [1] is “binds”.

B11: a(681-700) (peptide, UniProt P32563 681-700, looked up)
peptide: EAQQLISAMDADDAEEEEVG-cellulose
modifications: reading uncertain
notes: as for B2
On to B11, for which the binding result in experiment [1] is on record as “binds”.

B12: H(271-290) (peptide, UniProt P41807 271-290, looked up)
peptide: FLDLLKLVKITIKEKVSRLC-cellulose
modifications: reading uncertain
notes: as for B2
Turning to B12, the binding result in experiment [2] and in experiment [3] was “binds” throughout.

B13: a(51-70) (peptide, UniProt P32563 51-70, looked up)
peptide: FQRTFVNEIRRLDNVERQYR-cellulose
modifications: reading uncertain
notes: V-ATPase Vo subunit a (gene Vph1), S. cerevisiae, residues 51-70; source: synthetic peptide, spotted on glass slide array (Intavis)
Consider B13, for which the binding result in experiment [4] and in experiment [2] was “binds” each time.

B14: d(21-40) (peptide, UniProt P32366 21-40, looked up)
peptide: RNGLLSNNQYINLTQCDTLE-cellulose
modifications: reading uncertain
notes: V-ATPase Vo subunit d, S. cerevisiae, residues 21-40; source: synthetic peptide, spotted on glass slide array (Intavis)
With B14, the binding result in experiment [1] and in experiment [2] was “binds” in each case.

B15: a(131-150) (peptide, UniProt P32563 131-150, looked up)
peptide: IEVQKNDLEQYRFILQSGDE-cellulose
modifications: reading uncertain
notes: as for B2
Turning to B15, the binding result in experiment [1] is given as “binds”.

B16: G(71-90) (peptide, UniProt P48836 71-90, looked up)
peptide: KAEAGVQGELAEIKKIAEKK-cellulose
modifications: reading uncertain
notes: V-ATPase subunit G (Vma10p), S. cerevisiae, residues 71-90; source: synthetic peptide, spotted on glass slide array (Intavis)
Regarding B16, the binding result in experiment [1] and in experiment [2] was “binds” throughout.

B17: d(131-150) (peptide, UniProt P32366 131-150, looked up)
peptide: GWFDTLPTLSVATDLESLYE-cellulose
modifications: reading uncertain
notes: as for B2
Regarding B17, the binding result in experiment [1] and in experiment [2] was “binds” in each case.

B18: d(261-280) (peptide, UniProt P32366 261-280, looked up)
peptide: DFEGVRAALANVYEYRGFLE-cellulose
modifications: reading uncertain
notes: as for B2
Turning to B18, in experiment [1], the binding result is “binds”.

B19: a(371-390) (peptide, UniProt P32563 371-390, looked up)
peptide: LDTNHTPPTFHRTNKFTAGF-cellulose
modifications: reading uncertain
notes: as for B2
For the molecule B19, the binding result in experiment [4] and in experiment [3] was “binds” each time.

B20: H(91-110) (peptide, UniProt P41807 91-110, looked up)
peptide: DCKKSVQNLIAELLSSDKYG-cellulose
modifications: reading uncertain
notes: V-ATPase subunit H (Vma13p), S. cerevisiae, residues 91-110; source: synthetic peptide, spotted on glass slide array (Intavis)
As for B20, the binding result in experiment [5] is reported as “binds”.

B21: E(51-70) (peptide, UniProt P22203 51-70, looked up)
peptide: VRNETNNIDGNFKSKLKKAM-cellulose
modifications: reading uncertain
notes: V-ATPase subunit E (Vma4p), S. cerevisiae, residues 51-70; source: synthetic peptide, spotted on glass slide array (Intavis)
Regarding B21, in experiment [5], the binding result was “binds”.

B22: d(51-70) (peptide, UniProt P32366 51-70, looked up)
peptide: YGNFLSSVSSESLTTSLIQE-cellulose
modifications: reading uncertain
notes: V-ATPase Vo subunit d, S. cerevisiae, residues 51-70; source: synthetic peptide, spotted on glass slide array (Intavis)
Consider B22, for which the binding result in experiment [1] and in experiment [2] was “binds” throughout.

B23: d(181-200) (peptide, UniProt P32366 181-200, looked up)
peptide: RNKLYKAYLEDFYNFVTEEI-cellulose
modifications: reading uncertain
notes: as for B2
With B23, in experiment [1], the binding result was “binds”.

B24: H(181-200) (peptide, UniProt P41807 181-200, looked up)
peptide: DTCYVCIRLLQELAVIPEYR-cellulose
modifications: cysteine pairing not given here; reading uncertain
notes: as for B2
On to B24, for which, in experiment [5], the binding result is on record as “binds”.

B25: a(521-540) (peptide, UniProt P32563 521-540, looked up)
peptide: AWHGTENALLFSNSYKMKLS-cellulose
modifications: reading uncertain
notes: as for B2
As for B25, the binding result in experiment [4] is on record as “binds”.

B26: B(421) (peptide, UniProt P16140 421-440, looked up)
peptide: GEEALSIEDKLSLEFLEKFE-cellulose
modifications: reading uncertain
notes: V-ATPase subunit B, S. cerevisiae; source: synthetic peptide, spotted on glass slide array (Intavis)
Turning to B26, in experiment [1], the binding result is “binds”.
